The values that follow come from PMC4379099 (PLoS Pathogens, 2015).

For assay [1], the target named is EFR::GFP (full-length Arabidopsis EFR with a carboxyl-terminal GFP fusion, transgenic rice) (Arabidopsis) (UniProt C0LGT6).
Assay [2] has as its target T1, EFR::XA21::GFP chimeric receptor (EFR ectodomain 1-649 fused to XA21 651-1025, carboxyl-terminal GFP, transgenic rice) (Arabidopsis | rice (Oryza longistaminata)) (UniProt C0LGT6).
T1 sequence: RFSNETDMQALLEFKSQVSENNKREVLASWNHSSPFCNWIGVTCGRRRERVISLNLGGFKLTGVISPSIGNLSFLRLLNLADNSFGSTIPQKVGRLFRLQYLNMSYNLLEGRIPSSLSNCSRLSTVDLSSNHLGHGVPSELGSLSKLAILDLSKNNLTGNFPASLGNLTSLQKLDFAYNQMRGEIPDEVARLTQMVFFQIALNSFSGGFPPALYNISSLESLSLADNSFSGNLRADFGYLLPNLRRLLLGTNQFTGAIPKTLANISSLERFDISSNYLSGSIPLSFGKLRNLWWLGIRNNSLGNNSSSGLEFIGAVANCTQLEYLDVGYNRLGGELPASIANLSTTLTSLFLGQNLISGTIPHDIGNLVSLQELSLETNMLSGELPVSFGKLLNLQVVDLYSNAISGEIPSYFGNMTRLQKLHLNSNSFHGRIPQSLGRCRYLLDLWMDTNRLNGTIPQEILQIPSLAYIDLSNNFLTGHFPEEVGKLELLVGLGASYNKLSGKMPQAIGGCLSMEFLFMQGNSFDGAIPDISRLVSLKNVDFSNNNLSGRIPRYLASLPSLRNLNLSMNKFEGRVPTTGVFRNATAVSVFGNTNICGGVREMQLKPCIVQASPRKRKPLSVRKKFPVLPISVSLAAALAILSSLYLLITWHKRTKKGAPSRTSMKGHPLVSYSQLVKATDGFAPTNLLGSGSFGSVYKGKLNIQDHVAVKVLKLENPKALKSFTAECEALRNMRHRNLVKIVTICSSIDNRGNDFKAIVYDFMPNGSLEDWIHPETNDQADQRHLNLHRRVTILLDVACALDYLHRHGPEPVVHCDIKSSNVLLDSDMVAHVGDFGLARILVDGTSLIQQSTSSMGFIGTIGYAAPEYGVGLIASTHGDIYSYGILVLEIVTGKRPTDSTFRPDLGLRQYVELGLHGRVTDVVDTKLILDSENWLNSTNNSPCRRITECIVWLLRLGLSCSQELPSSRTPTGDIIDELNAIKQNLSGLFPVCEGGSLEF

The subject of the next assay is MAP kinases. In kind it is cell-based, rice.

In the case of “elf18_(E.coli) (from UniProt P0CE47 1-18) (peptide)”, the EC50 of ROS production in mature rice leaves (dose response curve) in assay [1] and in assay [2] was 300 pM each time.

With chitin, in the assay on MAP kinases, the “MAP kinase activation (phospho p44/42 bands, ~47 kDa and 40 kDa)” value is on record as “increase of two distinct bands”.
